According to paper PMC10786891, “Massively parallel profiling of RNA-targeting CRISPR-Cas13d”:

T1: EsCas13d, nuclease-dead (Eubacterium siraeum, UniProt B0MS50, R295A;H300A;R849A;H854A)
T1 sequence: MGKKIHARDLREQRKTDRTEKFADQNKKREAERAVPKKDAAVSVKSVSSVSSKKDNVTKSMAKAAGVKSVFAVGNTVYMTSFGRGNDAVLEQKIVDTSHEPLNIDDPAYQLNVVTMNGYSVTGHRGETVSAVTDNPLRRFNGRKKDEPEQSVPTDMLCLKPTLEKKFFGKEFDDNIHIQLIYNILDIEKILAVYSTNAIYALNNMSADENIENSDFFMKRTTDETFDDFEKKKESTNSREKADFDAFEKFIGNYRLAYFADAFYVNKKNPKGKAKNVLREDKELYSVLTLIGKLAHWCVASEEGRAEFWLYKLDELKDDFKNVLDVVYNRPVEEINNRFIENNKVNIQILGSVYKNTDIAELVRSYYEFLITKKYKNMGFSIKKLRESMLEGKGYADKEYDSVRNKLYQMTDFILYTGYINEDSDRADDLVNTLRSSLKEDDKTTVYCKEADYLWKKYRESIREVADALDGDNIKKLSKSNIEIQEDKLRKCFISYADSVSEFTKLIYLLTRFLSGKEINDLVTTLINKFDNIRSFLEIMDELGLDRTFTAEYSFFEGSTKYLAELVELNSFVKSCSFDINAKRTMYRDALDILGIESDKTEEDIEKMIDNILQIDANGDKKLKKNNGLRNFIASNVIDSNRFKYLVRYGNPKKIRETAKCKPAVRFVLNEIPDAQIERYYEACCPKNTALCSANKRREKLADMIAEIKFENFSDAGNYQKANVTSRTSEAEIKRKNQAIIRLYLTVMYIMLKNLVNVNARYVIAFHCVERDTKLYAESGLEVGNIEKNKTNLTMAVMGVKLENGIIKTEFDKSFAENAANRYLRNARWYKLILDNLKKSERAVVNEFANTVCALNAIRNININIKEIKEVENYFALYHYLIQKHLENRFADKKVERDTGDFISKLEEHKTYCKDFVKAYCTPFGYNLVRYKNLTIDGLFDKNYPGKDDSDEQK

B1: target 1 A9G,A18U (mixed)
RNA 1: CACCCGUGCAAAAAUGCAGGGGUCUAAAACUGAGCGGAUAACCUCUCUAUGG
RNA 2: GGGAAUGGAUCCACAUCUACGAAUUCGUACCAUUGAGAGGUUGUCCGCUCACCGAGAUCGGAAGAGCACACGU
B2: target 1 U10G,A18U (mixed)
RNA 1: CACCCGUGCAAAAAUGCAGGGGUCUAAAACUGAGCGGAUAACCUCUCUAUGG
RNA 2: GGGAAUGGAUCCACAUCUACGAAUUCGUACCAUUGAGAGGUGAUCCGCUCACCGAGAUCGGAAGAGCACACGU
B3: target 1 insU 3' of 14,insC 3' of 5 (mixed)
RNA 1: CACCCGUGCAAAAAUGCAGGGGUCUAAAACUGAGCGGAUAACCUCUCUAUGG
RNA 2: GGGAAUGGAUCCACAUCUACGAAUUCGUACCAUAGAGAUGGUUAUCCGCCUCACCGAGAUCGGAAGAGCACACGU
B4: target 3 insA 3' of 7,insU 3' of 5 (mixed)
RNA 1: CACCCGUGCAAAAUUGCAGGGGUCUAAAACGACCUGAAUAUUUCAGAUCAAA
RNA 2: GGGAAUGGAUCCACAUCUACGAAUUCGUUUUUGAUCUGAAAUAUUACAUGGUCUGCAGAUCGGAAGAGCACACGU
B5: target 3 insC 3' of 9,insG 3' of 6 (mixed)
RNA 1: CACCCGUGCAAAAUUGCAGGGGUCUAAAACGACCUGAAUAUUUCAGAUCAAA
RNA 2: GGGAAUGGAUCCACAUCUACGAAUUCGUUUUUGAUCUGAAAUACUUCGAGGUCUGCAGAUCGGAAGAGCACACGU
B6: target 3 U2A,G3A (mixed)
RNA 1: CACCCGUGCAAAAUUGCAGGGGUCUAAAACGACCUGAAUAUUUCAGAUCAAA
RNA 2: GGGAAUGGAUCCACAUCUACGAAUUCGUUUUUGAUCUGAAAUAUUCAGAACUGCAGAUCGGAAGAGCACACGU
B7: target 3 U8G (mixed)
RNA 1: CACCCGUGCAAAAUUGCAGGGGUCUAAAACGACCUGAAUAUUUCAGAUCAAA
RNA 2: GGGAAUGGAUCCACAUCUACGAAUUCGUUUUUGAUCUGAAAUAGUCAGGUCUGCAGAUCGGAAGAGCACACGU
B8: target 3 U2G,U21C (mixed)
RNA 1: CACCCGUGCAAAAUUGCAGGGGUCUAAAACGACCUGAAUAUUUCAGAUCAAA
RNA 2: GGGAAUGGAUCCACAUCUACGAAUUCGUUUCUGAUCUGAAAUAUUCAGGGCUGCAGAUCGGAAGAGCACACGU
B9: target 3 insU 3' of 14,insA 3' of 3 (mixed)
RNA 1: CACCCGUGCAAAAUUGCAGGGGUCUAAAACGACCUGAAUAUUUCAGAUCAAA
RNA 2: GGGAAUGGAUCCACAUCUACGAAUUCGUUUUUGAUCUGUAAAUAUUCAGGAUCUGCAGAUCGGAAGAGCACACGU
B10: target 3 insA 3' of 7,insC 3' of 7 (mixed)
RNA 1: CACCCGUGCAAAAUUGCAGGGGUCUAAAACGACCUGAAUAUUUCAGAUCAAA
RNA 2: GGGAAUGGAUCCACAUCUACGAAUUCGUUUUUGAUCUGAAAUAUUACCAGGUCUGCAGAUCGGAAGAGCACACGU
B11: target 3 C6A (mixed)
RNA 1: CACCCGUGCAAAAUUGCAGGGGUCUAAAACGACCUGAAUAUUUCAGAUCAAA
RNA 2: GGGAAUGGAUCCACAUCUACGAAUUCGUUUUUGAUCUGAAAUAUUAAGGUCUGCAGAUCGGAAGAGCACACGU
B12: target 3 insU 3' of 22,insG 3' of 6 (mixed)
RNA 1: CACCCGUGCAAAAUUGCAGGGGUCUAAAACGACCUGAAUAUUUCAGAUCAAA
RNA 2: GGGAAUGGAUCCACAUCUACGAAUUCGUUUUUUGAUCUGAAAUAUUCGAGGUCUGCAGAUCGGAAGAGCACACGU
B13: target 3 insU 3' of 14,insU 3' of 5 (mixed)
RNA 1: CACCCGUGCAAAAUUGCAGGGGUCUAAAACGACCUGAAUAUUUCAGAUCAAA
RNA 2: GGGAAUGGAUCCACAUCUACGAAUUCGUUUUUGAUCUGUAAAUAUUCAUGGUCUGCAGAUCGGAAGAGCACACGU
B14: target 3 A12G,U22C (mixed)
RNA 1: CACCCGUGCAAAAUUGCAGGGGUCUAAAACGACCUGAAUAUUUCAGAUCAAA
RNA 2: GGGAAUGGAUCCACAUCUACGAAUUCGUUCUUGAUCUGAGAUAUUCAGGUCUGCAGAUCGGAAGAGCACACGU
B15: target 3 U2G,A12G (mixed)
RNA 1: CACCCGUGCAAAAUUGCAGGGGUCUAAAACGACCUGAAUAUUUCAGAUCAAA
RNA 2: GGGAAUGGAUCCACAUCUACGAAUUCGUUUUUGAUCUGAGAUAUUCAGGGCUGCAGAUCGGAAGAGCACACGU
B16: target 3 insG 3' of 7 (mixed)
RNA 1: CACCCGUGCAAAAUUGCAGGGGUCUAAAACGACCUGAAUAUUUCAGAUCAAA
RNA 2: GGGAAUGGAUCCACAUCUACGAAUUCGUUUUUGAUCUGAAAUAUUGCAGGUCUGCAGAUCGGAAGAGCACACGU
B17: target 3 insC 3' of 8,insC 3' of 7 (mixed)
RNA 1: CACCCGUGCAAAAUUGCAGGGGUCUAAAACGACCUGAAUAUUUCAGAUCAAA
RNA 2: GGGAAUGGAUCCACAUCUACGAAUUCGUUUUUGAUCUGAAAUAUCUCCAGGUCUGCAGAUCGGAAGAGCACACGU
B18: target 3 C1A,U22A (mixed)
RNA 1: CACCCGUGCAAAAUUGCAGGGGUCUAAAACGACCUGAAUAUUUCAGAUCAAA
RNA 2: GGGAAUGGAUCCACAUCUACGAAUUCGUUAUUGAUCUGAAAUAUUCAGGUAUGCAGAUCGGAAGAGCACACGU
B19: target 3 insC 3' of 7,insA 3' of 4 (mixed)
RNA 1: CACCCGUGCAAAAUUGCAGGGGUCUAAAACGACCUGAAUAUUUCAGAUCAAA
RNA 2: GGGAAUGGAUCCACAUCUACGAAUUCGUUUUUGAUCUGAAAUAUUCCAGAGUCUGCAGAUCGGAAGAGCACACGU
B20: target 3 C1G,U8G (mixed)
RNA 1: CACCCGUGCAAAAUUGCAGGGGUCUAAAACGACCUGAAUAUUUCAGAUCAAA
RNA 2: GGGAAUGGAUCCACAUCUACGAAUUCGUUUUUGAUCUGAAAUAGUCAGGUGUGCAGAUCGGAAGAGCACACGU
B21: target 3 C1G,C6A (mixed)
RNA 1: CACCCGUGCAAAAUUGCAGGGGUCUAAAACGACCUGAAUAUUUCAGAUCAAA
RNA 2: GGGAAUGGAUCCACAUCUACGAAUUCGUUUUUGAUCUGAAAUAUUAAGGUGUGCAGAUCGGAAGAGCACACGU
B22: target 3 insC 3' of 19,insU 3' of 5 (mixed)
RNA 1: CACCCGUGCAAAAUUGCAGGGGUCUAAAACGACCUGAAUAUUUCAGAUCAAA
RNA 2: GGGAAUGGAUCCACAUCUACGAAUUCGUUUUUGCAUCUGAAAUAUUCAUGGUCUGCAGAUCGGAAGAGCACACGU
B23: target 3 C1U,U22A (mixed)
RNA 1: CACCCGUGCAAAAUUGCAGGGGUCUAAAACGACCUGAAUAUUUCAGAUCAAA
RNA 2: GGGAAUGGAUCCACAUCUACGAAUUCGUUAUUGAUCUGAAAUAUUCAGGUUUGCAGAUCGGAAGAGCACACGU
B24: target 3 insA 3' of 7,insA 3' of 2 (mixed)
RNA 1: CACCCGUGCAAAAUUGCAGGGGUCUAAAACGACCUGAAUAUUUCAGAUCAAA
RNA 2: GGGAAUGGAUCCACAUCUACGAAUUCGUUUUUGAUCUGAAAUAUUACAGGUACUGCAGAUCGGAAGAGCACACGU

The binders below were run against T1, EsCas13d, nuclease-dead (assay: crRNA (strand 1, pre-loaded); Mg2+; 40 mM Tris-HCl pH 7.5, 150 mM NaCl, 6 mM MgCl2, 1 mM DTT, 0.1% Tween-20, 0.2 mg/ml BSA; 25 C; 10 min per concentration, then washed). Settings: tags: His6-TwinStrep-SUMO cleaved; N-terminal SNAP kept (SNAP-Surface 488); label: 3' end held by stalled T7 RNA polymerase.
B1 gave a Kd of 39.7 ± 3.1 nM.
Work on B2 yielded a Kd of 57 ± 9 nM.
Work on B3 yielded a Kd of about 60 nM.
In the case of B4, the Kd is reported as 15.7 ± 1.3 nM.
B5 showed a Kd of 89 ± 23.5 nM.
B6 showed a Kd of 38.5 ± 4 nM.
B7 gave a Kd of 45 ± 6 nM.
B8 was tested, and the Kd was 60 ± 24.5 nM.
With B9 the Kd was about 100 nM.
Work on B10 yielded a Kd of 48 ± 5.5 nM.
B11 showed a Kd of 36.2 ± 4.1 nM.
B12 showed a Kd of 7.7 ± 0.65 nM.
B13 showed a Kd of 83.5 ± 33.5 nM.
B14 showed a Kd of 40.5 ± 8.5 nM.
In the case of B15, the Kd is reported as 33.5 ± 6 nM.
For B16, the Kd was 65.5 ± 13.5 nM.
B17 showed a Kd of 77.5 ± 16 nM.
B18 showed a Kd of 13.6 ± 1.9 nM.
B19 showed a Kd of 97 ± 35 nM.
With B20 the Kd was 35 ± 6 nM.
B21 was tested, and the Kd was 30.5 ± 5 nM.
Binder B22 has a Kd of 130 ± 40 nM.
Work on B23 yielded a Kd of 25.9 ± 5.5 nM.
With B24 the Kd was 51 ± 8 nM.
